Source: article PMC11182772, “A non-canonical role of the inner kinetochore in regulating sister-chromatid cohesion at centromeres” (The EMBO Journal, 2024)

T1: GST-Scc1 (281–420)-SA2 (80–1060) sub-complex (UniProt O60216 281-420; Q8N3U4 80-1060)
T1 sequence (looked up) 1: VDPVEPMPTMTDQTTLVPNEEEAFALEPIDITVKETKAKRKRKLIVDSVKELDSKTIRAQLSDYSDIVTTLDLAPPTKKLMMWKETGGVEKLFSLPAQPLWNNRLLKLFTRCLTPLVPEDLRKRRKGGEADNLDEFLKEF
T1 sequence (looked up) 2: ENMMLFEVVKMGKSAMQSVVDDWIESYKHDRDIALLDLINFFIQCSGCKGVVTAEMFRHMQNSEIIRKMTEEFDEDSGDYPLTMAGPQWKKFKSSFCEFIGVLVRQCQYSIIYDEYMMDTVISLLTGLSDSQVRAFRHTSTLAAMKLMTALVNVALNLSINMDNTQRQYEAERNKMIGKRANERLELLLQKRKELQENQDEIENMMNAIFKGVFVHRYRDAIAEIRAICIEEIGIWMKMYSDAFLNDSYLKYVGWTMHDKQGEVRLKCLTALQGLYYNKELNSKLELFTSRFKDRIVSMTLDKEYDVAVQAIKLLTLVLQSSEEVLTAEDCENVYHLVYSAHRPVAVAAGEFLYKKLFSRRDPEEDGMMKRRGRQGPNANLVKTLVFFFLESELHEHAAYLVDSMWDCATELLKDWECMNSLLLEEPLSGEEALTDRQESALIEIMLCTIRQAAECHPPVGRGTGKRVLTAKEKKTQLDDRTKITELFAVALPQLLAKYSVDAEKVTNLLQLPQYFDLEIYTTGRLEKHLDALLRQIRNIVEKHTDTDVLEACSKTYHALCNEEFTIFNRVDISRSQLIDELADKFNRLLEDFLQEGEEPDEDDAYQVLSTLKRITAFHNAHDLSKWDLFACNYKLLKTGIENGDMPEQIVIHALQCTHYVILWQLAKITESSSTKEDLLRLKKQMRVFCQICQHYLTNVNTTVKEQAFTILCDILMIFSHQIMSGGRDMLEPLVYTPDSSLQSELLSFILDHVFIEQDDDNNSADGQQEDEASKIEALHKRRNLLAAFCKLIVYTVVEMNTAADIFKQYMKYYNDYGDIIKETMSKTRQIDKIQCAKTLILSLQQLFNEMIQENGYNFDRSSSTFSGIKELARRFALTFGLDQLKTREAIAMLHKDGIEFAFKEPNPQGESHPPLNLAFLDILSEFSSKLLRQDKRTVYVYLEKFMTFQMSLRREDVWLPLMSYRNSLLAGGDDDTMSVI


Tests used:
[1] = target: T1, GST-Scc1 (281–420)-SA2 (80–1060) …; assay: pull-down; MBP fusion protein as bait, eluted GST-Scc1 (281–420)-SA2 (80–1060) as prey; binding 2 h, three washes of 5 min in P150 buffer; immunoblot for GST; conditions: both partners purified
[2] = target: T1, GST-Scc1 (281–420)-SA2 (80–1060) …; assay: pull-down; GST-Scc1 (281–420)-SA2 (80–1060) as bait, purified recombinant MBP fusion proteins as prey; immunoblot for MBP; conditions: both partners purified

Row | Binder | binding result [1] | binding result [2]
1 | MBP-CENP-U (1–200) (domain or fragment, human, UniProt Q71F23 1-200, looked up, human CENP-U, residues 1–200; vector pMal-C2E; also called MBP-fused CENP-U (1–200); source: E. coli BL21 (DE3), purified (amylose resin)) MAPRGRRRPRPHRSEGARRSKNTLERTHSMKDKAGQKCKPIDVFDFPDNSDVSSIGRLGENEKDEETYETFDPPLHSTAIYADEEEFSKHCGLSLSSTPPGKEAKRSSDTSGNEASEIESVKISAKKPGRKLRPISDDSESIEESDTRRKVKSAEKISTQRHEVIRTTASSELSEKPAESVTSKKTGPLSAQPSVEKENL | binds | 
2 | MBP-Sgo1 (230–400) (domain or fragment, human, UniProt Q5FBB7 230-400, looked up, human Sgo1, residues 230–400; vector pMal-C2E; also called recombinant MBP-Sgo1 (230–400); source: E. coli BL21 (DE3), purified (amylose resin)) DPLVNMHIPENVQHNACQWSKDQVNLSPKLIQPGTFTKTKEDILESKSEQTKSKQRDTQERKREEKRKANRRKSKRMSKYKENKSENKKTVPQKKMHKSVSSNDAYNFNLEEGVHLTPFRQKVSNDSNREENNESEVSLCESSGSGDDSDDLYLPTCKYIQNPTSNSDRPV |  | binds
3 | MBP-Wapl (1–630) (domain or fragment, human, UniProt Q7Z5K2 1-630, looked up, human Wapl, residues 1–630, with all three FGF motifs; vector pMal-C2E; also called MBP-fused Wapl (1–630); source: E. coli BL21 (DE3), purified (amylose resin; on resin or eluted)) MTSRFGKTYSRKGGNGSSKFDEVFSNKRTTLSTKWGETTFMAKLGQKRPNFKPDIQEIPKKPKVEEESTGDPFGFDSDDESLPVSSKNLAQVKCSSYSESSEAAQLEEVTSVLEANSKISHVVVEDTVVSDKCFPLEDTLLGKEKSTNRIVEDDASISSCNKLITSDKVENFHEEHEKNSHHIHKNADDSTKKPNAETTVASEIKETNDTWNSQFGKRPESPSEISPIKGSVRTGLFEWDNDFEDIRSEDCILSLDSDPLLEMKDDDFKNRLENLNEAIEEDIVQSVLRPTNCRTYCRANKTKSSQGASNFDKLMDGTSQALAKANSESSKDGLNQAKKGGVSCGTSFRGTVGRTRDYTVLHPSCLSVCNVTIQDTMERSMDEFTASTPADLGEAGRLRKKADIATSKTTTRFRPSNTKSKKDVKLEFFGFEDHETGGDEGGSGSSNYKIKYFGFDDLSESEDDEDDDCQVERKTSKKRTKTAPSPSLQPPPESNDNSQDSQSGTNNAENLDFTEDLPGVPESVKKPINKQGDKSKENTRKIFSGPKRSPTKAVYNARHWNHPDSEELPGPPVVKPQSVTVRLSSKEPNQKDDGVFKAPAPPSKVIKTVTIPTQPYQDIVTALKCRREDK |  | binds
